In patent publication US8338123B2, “Food production process” (DSM IP Assets B.V., priority 2002, dated 2012) one finds cancer risk, Km and Vmax data, which are given here for two molecules.

As a reminder, the Km is the concentration of substrate that gives half-maximal velocity. As a reminder, the Vmax is the rate approached at saturating substrate.

One data set concerns humans. The note with it: life-long exposure, daily uptake 1.6 ug acrylamide/kg; cited from earlier work.
Substrate in data set [1]: NC(=O)C[C@H](N)C(=O)O
In words: purified protein, by the assay type. The note with it: other: substrate L-asparagine, pH 5.5, 37° C.

For the molecule `C=CC(N)=O` [acrylamide], the cancer risk in the data set on humans is on record as 7*10^−3.

B1: Aspergillus niger asparaginase ASPA01, SEQ ID NO: 3 (Aspergillus niger CBS 513.88) (protein)
chain: SPLLYSRTTNETFVFTNANGLNFTQMNTTLPNVTIFATGGTIAGSDSSSTATTGYTSGAVGVLSLIDAVPSMLDVANVAGVQVANVGSEDITSDILISMSKKLNRVVCEDPTMAGAVITHGTDTLEETAFFLDATVNCGKPIVIVGAMRPSTAISADGPFNLLEAVTVAASTSARDRGAMVVMNDRIASAYYVTKTNANTMDTFKAMEMGYLGEMISNTPFFFYPPVKPTGKVAFDITNVTEIPRVDILFSYEDMHNDTLYNAISSGAQGIVIAGAGAGGVTTSFNEAIEDVINRLEIPVVQSMRTVNGEVPLSDVSSDTATHIASGYLNPQKSRILLGLLLSQGKNITEIADVFALGTDA
As for B1, in data set [1], the Michaelis-Menten constant (Km) turned out to be 2400 ± 300 µM and the Vmax is 1100 µmol/min/mg.
